The values below come from patent US20020173049A1.

This assay concerns the target E3α (rabbit). Nature of the assay: cell-based or functional assay.

Non-standard residues stand in square brackets, D forms with d. No end group written: not given here. Ahx = NCCCCCC(=O)O

Phe-[Ahx]-Cys yielded a TCA-soluble 125I (cpm) from [125I]-lysozyme degradation in rabbit reticulocyte lysate at the 2 hour time point; no treatment 12,475 cpm of 3590 cpm.
